Reference: US7538195

Target: biotinylated full-length human IGF-I receptor (human) (UniProt P08069)
Assay: ELISA titration, similar to that of the whole antibody

Sequence of Fab fragment of EM164 antibody (VH): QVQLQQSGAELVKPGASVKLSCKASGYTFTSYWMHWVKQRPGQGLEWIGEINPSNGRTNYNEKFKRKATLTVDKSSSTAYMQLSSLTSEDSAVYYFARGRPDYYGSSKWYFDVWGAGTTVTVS
Sequence of Fab fragment of EM164 antibody (VL): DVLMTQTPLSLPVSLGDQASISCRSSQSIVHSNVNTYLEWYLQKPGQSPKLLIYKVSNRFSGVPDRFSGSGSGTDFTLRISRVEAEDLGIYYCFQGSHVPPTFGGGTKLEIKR

- Kd: 300 pM
Substance: Fab fragment of EM164 antibody
